Experimental data: patent US11661611

Tests used:
Experiment in all cases: cell_activity
[1] = tested on: ZFN 59580 (synthetic construct); conditions: indels with partner 59581, 6 ug mRNA, activated T cells; 83 at 2 ug, 72 at 0.5 ug
[2] = tested on: ZFN 59557 (synthetic construct); conditions: indels with partner 59558, 6 ug mRNA, activated T cells; 80 at 2 ug, 55 at 0.5 ug
[3] = tested on: ZFN 59440 (synthetic construct); conditions: indels with partner 59441, 6 ug mRNA, activated T cells; 82 at 2 ug, 59 at 0.5 ug; F6 printed ATCCLAH in Table 1, ATCGLAH in claim
[4] = tested on: ZFN 59441 (synthetic construct); conditions: indels with partner 59440, 6 ug mRNA, activated T cells; 82 at 2 ug, 59 at 0.5 ug
[5] = tested on: ZFN 59581 (synthetic construct); conditions: indels with partner 59580, 6 ug mRNA, activated T cells; 83 at 2 ug, 72 at 0.5 ug
[6] = tested on: ZFN 59489 (synthetic construct); conditions: indels with partner 59488, 6 ug mRNA, activated T cells; 84 at 2 ug, 60 at 0.5 ug
[7] = tested on: ZFN 59558 (synthetic construct); conditions: indels with partner 59557, 6 ug mRNA, activated T cells; 80 at 2 ug, 55 at 0.5 ug
[8] = tested on: ZFN 59488 (synthetic construct); conditions: indels with partner 59489, 6 ug mRNA, activated T cells; 84 at 2 ug, 60 at 0.5 ug

## CCGGAAAGGCCAGGATGCGTGGCCTGGA (double strand) [CISH exon 3 site 59580]
[1]
  activity: 82%

## GAGTCCAGACGGAAGCTGGAGTCGGCAT (double strand) [CISH exon 3 site 59557]
[2]
  activity: 84%

## CCAGCAAAGGACGAGGTCTAGAAGGCAG (double strand) [CISH exon 2 site 59440]
[3]
  activity: 84%

## GTGGAGCGGACTGGGCAGCGGCCCCTGT (double strand) [CISH exon 2 site 59441]
[4]
  activity: 84%

## ATAGTGCTGCACAAGGCTGACCACATCC (double strand) [CISH exon 3 site 59581]
[5]
  activity: 82%

## GAGGAGGTGGCAGAGGGTACCCCAGCCC (double strand) [CISH exon 2 site 59489]
[6]
  activity: 89%

## GATGCGTGGCCTGGACAAGCAGTTGGAG (double strand) [CISH exon 3 site 59558]
[7]
  activity: 84%

## GGAAGGCCCCAGCAGGCAAGGGCTGCAT (double strand) [CISH exon 2 site 59488]
[8]
  activity: 89%
